Columns and labels:
Conditions in all cases: modification not given
[1] = target: HLA-DRB1*08:01 MHCII molecule (human); experiment: competition ELISA; 25 nM huCLIP-bio
[2] = target: HLA-DRB1*09:01 MHCII molecule (human); experiment: competition ELISA; 25 nM huCLIP-bio
[3] = target: HLA-DRB1*15:01 MHCII molecule (human); experiment: competition ELISA; 25 nM huCLIP-bio
[4] = target: HLA-DRB1*11:01 MHCII molecule (human); experiment: competition ELISA; 25 nM huCLIP-bio
[5] = target: HLA-DRB1*04:01 MHCII molecule (human); experiment: competition ELISA; 25 nM huCLIP-bio
[6] = target: HLA-DRB1*08:01 MHCII molecule (human); experiment: competition ELISA; 50 nM huCLIP-bio
[7] = target: HLA-DRB1*09:01 MHCII molecule (human); experiment: competition ELISA; 50 nM huCLIP-bio
[8] = target: HLA-DRB1*15:01 MHCII molecule (human); experiment: competition ELISA; 50 nM huCLIP-bio
[9] = target: HLA-DRB1*11:01 MHCII molecule (human); experiment: competition ELISA; 50 nM huCLIP-bio
[10] = target: HLA-DRB1*04:01 MHCII molecule (human); experiment: competition ELISA; 50 nM huCLIP-bio

PVSQMRMATPLLMRP [mCLIP]
IC50 [1]: 36.6 nM | IC50 [2]: 25 nM | IC50 [3]: 14.6 nM | IC50 [4]: 22.6 nM | IC50 [5]: 31.2 nM | IC50 [6]: 69.4 nM | IC50 [7]: 60.7 nM | IC50 [8]: 46.1 nM | IC50 [9]: 36.8 nM | IC50 [10]: 36.5 nM

From US20240255522A1
